The values below come from article PMC9038204 (PLoS Biology, 2022).

Sequences and labels used below:
B1: SNX2_(62-82) peptide (peptide)
peptide: TEVVLDDDREDLFAEATEEVS
notes: human SNX2 residues 62 to 82; also called second aDLF motif of SNX2; source: synthetic peptide (Genscript)
B2: human SNX1 peptide, residues 35-51 (first aDLF motif) (peptide)
peptide: EAGDSDTEGEDIFTGAA
notes: sorting nexin-1 (SNX1), human, residues 35 to 51; also called hSNX1 35-51; SNX1_(35-51); source: synthetic peptide (Genscript)
B3: SNX2_(16-33) peptide (peptide)
peptide: TDFEDLEDGEDLFTSTVS
notes: human SNX2 residues 16 to 33; also called first aDLF motif of SNX2; source: synthetic peptide (Genscript)
B4: isolated FERM domain of human SNX27 (domain or fragment, UniProt Q96L92 269-531, looked up)
chain: YNGVSDVELRVALPDGTTVTVRVKKNSTTDQVYQAIAAKVGMDSTTVNYFALFEVISHSFVRKLAPNEFPHKLYIQNYTSAVPGTCLTIRKWLFTTEEEILLNDNDLAVTYFFHQAVDDVKKGYIKAEEKSYQLQKLYEQRKMVMYLNMLRTCEGYNEIIFPHCACDSRRKGHVITAISITHFKLHACTEEGQLENQVIAFEWDEMQRWDTDEEGMAFCFEYARGEKKPRWVKIFTPYFNYMHECFERVFCELKWRKENIFQM
notes: FERM domain of human SNX27; pET-28a, TEV site between His-tag and SNX27; also called hSNX27_(FERM); source: E. coli BL21 (DE3), purified (TALON or Ni-NTA, SEC, Mono Q)
B5: SNX1_(75-92) peptide (peptide)
peptide: NGIHEEQDQEPQDLFADA
notes: human SNX1 residues 75 to 92; also called second aDLF motif of human SNX1; source: synthetic peptide (Genscript)
B6: human SNX1 peptide, residues 75-92 (second aDLF motif) (peptide)
peptide: NGIHEEQDQEPQDLFADA
notes: sorting nexin-1 (SNX1), human, residues 75 to 92; also called hSNX1 75-92; SNX1_(75-92); source: synthetic peptide (Genscript)
B7: human SNX2 peptide, residues 62-82 (second aDLF motif) (peptide)
peptide: TEVVLDDDREDLFAEATEEVS
notes: sorting nexin-2 (SNX2), human, residues 62 to 82; also called hSNX2 62-82; SNX2_(62-82); source: synthetic peptide (Genscript)
B8: SNX1_(35-51) peptide (peptide)
peptide: EAGDSDTEGEDIFTGAA
notes: human SNX1 residues 35 to 51; also called first aDLF motif of human SNX1; source: synthetic peptide (Genscript)
B9: GST-mSNX1(1-139) (domain or fragment, mouse, UniProt Q9WV80 1-139, looked up)
chain: MASGGGGCSASERLPPPFPGMDPESEGAAGASEPEAGDSDTEGEDIFTGAAAATKPQSPKKTTSLFPIKNGSKENGIHEDQDQEPQDLFADATVELSLDSTQNNQKTMPGKTLTSHSPQEATNSPKPQPSYEELEEEEQ
notes: mouse SNX1 residues 1 to 139; vector pGEX4T-2, thrombin-cleavable GST; eluted with glutathione and named GST-mSNX1(1-139) in the ITC; also called amino-terminal extension of mouse SNX1; source: E. coli BL21 CodonPlus (DE3), purified (glutathione Sepharose, SEC); not shown: GST, N-terminal, kept

Common to all, as to conditions: both partners purified
Assay [1] deals with T1, full-length mouse SNX27 (mouse, UniProt Q3UHD6 1-539).
T1 construct: sorting nexin-27 (SNX27), mouse; also called mSNX27FL
Kind of assay: ITC; 800 μM SNX1 or SNX2 peptide titrated into 20 μM mSNX27FL; 25°C; 50 mM HEPES pH 7.5, 200 mM NaCl, 5% glycerol, 1 mM β-ME with 1:10 peptide buffer (100 mM Tris-HCl pH 10.6); single-site model.

Assay [2] concerns the target T2, full-length mouse SNX27 (mouse, UniProt Q3UHD6 1-539).
T2 construct: sorting nexin-27 (SNX27), mouse, full length; pMCSG7 vector by ligation-independent cloning; also called mSNX27FL
Kind of assay: ITC; 800 μM hSNX1 or hSNX2 peptide (syringe) titrated into 20 μM mSNX27FL (cell); 25°C; 50 mM HEPES pH 7.5, 200 mM NaCl, 5% glycerol, 1 mM β-ME with 1:10 peptide buffer (100 mM Tris-HCl pH 10.6); single-site model.

For assay [3], the target named is T3, full-length mouse SNX1 with an amino-terminal His-tag (mouse, UniProt Q9WV80 1-522).
T3 construct: sorting nexin-1 (SNX1), mouse; vector pMW172Kan; also called mSNX1FL; His-SNX1FL; source: E. coli BL21 CodonPlus (DE3), purified (TALON or Ni-NTA, SEC); not shown: His-tag, N-terminal, kept
As to the kind of experiment: ITC; 800 μM hSNX27 FERM titrated into 20 μM GST-mSNX1(1-139) or His-SNX1FL; 25°C; 50 mM HEPES pH 7.5, 200 mM NaCl, 5% glycerol, 1 mM β-ME; single-site model.

Assay [4] has as its target T4, full-length human SNX27, wild-type (human, UniProt Q96L92 1-541).
T4 construct: sorting nexin-27 (SNX27), human; pET-28a, TEV site between His-tag and SNX27; also called hSNX27FL; hSNX27 WT; source: E. coli BL21 (DE3), purified (TALON or Ni-NTA, SEC)
As to the kind of experiment: ITC; 600 μM SNX1 75-92 peptide titrated into 20 μM hSNX27 wild-type or single-site mutant; 25°C; 50 mM HEPES pH 7.5, 200 mM NaCl, 5% glycerol, 1 mM β-ME; single-site model.

Assay [5] deals with T5, human SNX27 K496D (human, UniProt Q96L92 1-541, K496D).
T5 construct: human SNX27 single-site mutant; printed as R496D in the text and as K496D in the legend and the methods; also called hSNX27 K496D; SNX27(R496D); source: E. coli BL21 (DE3), purified (TALON or Ni-NTA, SEC)
The description is as above.

The target of assay [6] is T6, full-length human SNX27, wild type (human, UniProt Q96L92 1-541).
T6 construct: sorting nexin-27 (SNX27), human, full length; also called hSNX27FL; hSNX27 WT
Kind of assay: ITC; 600 μM hSNX1(75-92) peptide (syringe) titrated into 20 μM hSNX27FL wild type or single-site mutant (cell); 25°C; 50 mM HEPES pH 7.5, 200 mM NaCl, 5% glycerol, 1 mM β-ME; single-site model.

The target in assay [7] is B4. Kind of assay: ITC; 800 μM hSNX27 FERM titrated into 20 μM GST-mSNX1(1-139) or His-SNX1FL; 25°C; 50 mM HEPES pH 7.5, 200 mM NaCl, 5% glycerol, 1 mM β-ME; single-site model.

B1 displayed a Kd in assay [1] of 22.6 µM. B2: in assay [2], the affinity, expressed as Kd, was 33.4 ± 1.89 µM. For B3, binding in assay [1] was put at a Kd of 37.8 µM. Molecule B4 returned a Kd in assay [3] of 41 µM. Turning to B5, the results for the Kd in assay [1], in assay [4] and in assay [5] were 13.3 µM, 12.7 µM and 56.4 µM, respectively. For B6, the Kd in assay [2] was 13.4 ± 0.75 µM; in assay [6] it was 12.8 ± 0.47 µM. In turn, B7 showed a Kd in assay [2] of 22.6 ± 1.89 µM.

With B8, binding in assay [1] was put at a Kd of 33.4 µM. Molecule B9 gave a Kd in assay [7] of 39.1 µM.
